Laboratory results reported in US20140274782A1, “AFFINITY REAGENTS AND METHODS FOR DETECTION, PURIFICATION, AND PROTEOMIC ANALYSIS OF METHYLATED PROTEINS” (The Board of Trustees of the Leland Stanford Junior …, priority 2013, published 2014).

T1: G9a and GLP (Homo sapiens, UniProt Q96KQ7+Q9H9B1)
T1 sequence (Q96KQ7 2-1210 limits assumed): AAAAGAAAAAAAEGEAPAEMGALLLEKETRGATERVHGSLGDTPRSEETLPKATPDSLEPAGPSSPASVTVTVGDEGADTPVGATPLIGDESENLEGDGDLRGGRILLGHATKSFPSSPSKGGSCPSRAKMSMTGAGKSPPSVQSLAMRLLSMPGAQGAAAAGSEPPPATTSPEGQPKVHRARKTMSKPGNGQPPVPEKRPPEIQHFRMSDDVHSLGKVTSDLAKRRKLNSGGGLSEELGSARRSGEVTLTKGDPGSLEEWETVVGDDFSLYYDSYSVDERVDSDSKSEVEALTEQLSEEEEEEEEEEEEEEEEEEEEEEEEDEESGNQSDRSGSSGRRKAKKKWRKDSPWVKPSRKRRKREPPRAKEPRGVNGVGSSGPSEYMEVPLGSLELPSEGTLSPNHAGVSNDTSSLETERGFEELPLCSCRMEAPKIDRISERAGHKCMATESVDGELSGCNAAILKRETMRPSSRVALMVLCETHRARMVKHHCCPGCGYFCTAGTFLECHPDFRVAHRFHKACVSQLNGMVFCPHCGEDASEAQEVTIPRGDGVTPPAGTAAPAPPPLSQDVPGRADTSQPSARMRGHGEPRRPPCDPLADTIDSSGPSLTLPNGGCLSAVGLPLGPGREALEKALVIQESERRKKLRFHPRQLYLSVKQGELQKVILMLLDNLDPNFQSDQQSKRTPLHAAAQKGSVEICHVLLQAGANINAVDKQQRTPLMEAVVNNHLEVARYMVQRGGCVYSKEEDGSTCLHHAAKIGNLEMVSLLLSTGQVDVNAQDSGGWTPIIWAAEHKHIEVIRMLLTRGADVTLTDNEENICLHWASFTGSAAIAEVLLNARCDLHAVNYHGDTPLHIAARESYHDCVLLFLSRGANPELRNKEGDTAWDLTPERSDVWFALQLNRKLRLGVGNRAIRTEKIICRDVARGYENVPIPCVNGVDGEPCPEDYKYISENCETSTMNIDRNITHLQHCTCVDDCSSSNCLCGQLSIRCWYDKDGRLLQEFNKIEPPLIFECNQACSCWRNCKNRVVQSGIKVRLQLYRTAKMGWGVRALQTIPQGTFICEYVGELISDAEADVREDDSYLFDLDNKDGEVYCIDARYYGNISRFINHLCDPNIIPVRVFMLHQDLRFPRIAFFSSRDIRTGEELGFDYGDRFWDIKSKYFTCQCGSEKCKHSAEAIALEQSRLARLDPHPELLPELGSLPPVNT
T1 sequence (Q9H9B1 2-1298 limits assumed): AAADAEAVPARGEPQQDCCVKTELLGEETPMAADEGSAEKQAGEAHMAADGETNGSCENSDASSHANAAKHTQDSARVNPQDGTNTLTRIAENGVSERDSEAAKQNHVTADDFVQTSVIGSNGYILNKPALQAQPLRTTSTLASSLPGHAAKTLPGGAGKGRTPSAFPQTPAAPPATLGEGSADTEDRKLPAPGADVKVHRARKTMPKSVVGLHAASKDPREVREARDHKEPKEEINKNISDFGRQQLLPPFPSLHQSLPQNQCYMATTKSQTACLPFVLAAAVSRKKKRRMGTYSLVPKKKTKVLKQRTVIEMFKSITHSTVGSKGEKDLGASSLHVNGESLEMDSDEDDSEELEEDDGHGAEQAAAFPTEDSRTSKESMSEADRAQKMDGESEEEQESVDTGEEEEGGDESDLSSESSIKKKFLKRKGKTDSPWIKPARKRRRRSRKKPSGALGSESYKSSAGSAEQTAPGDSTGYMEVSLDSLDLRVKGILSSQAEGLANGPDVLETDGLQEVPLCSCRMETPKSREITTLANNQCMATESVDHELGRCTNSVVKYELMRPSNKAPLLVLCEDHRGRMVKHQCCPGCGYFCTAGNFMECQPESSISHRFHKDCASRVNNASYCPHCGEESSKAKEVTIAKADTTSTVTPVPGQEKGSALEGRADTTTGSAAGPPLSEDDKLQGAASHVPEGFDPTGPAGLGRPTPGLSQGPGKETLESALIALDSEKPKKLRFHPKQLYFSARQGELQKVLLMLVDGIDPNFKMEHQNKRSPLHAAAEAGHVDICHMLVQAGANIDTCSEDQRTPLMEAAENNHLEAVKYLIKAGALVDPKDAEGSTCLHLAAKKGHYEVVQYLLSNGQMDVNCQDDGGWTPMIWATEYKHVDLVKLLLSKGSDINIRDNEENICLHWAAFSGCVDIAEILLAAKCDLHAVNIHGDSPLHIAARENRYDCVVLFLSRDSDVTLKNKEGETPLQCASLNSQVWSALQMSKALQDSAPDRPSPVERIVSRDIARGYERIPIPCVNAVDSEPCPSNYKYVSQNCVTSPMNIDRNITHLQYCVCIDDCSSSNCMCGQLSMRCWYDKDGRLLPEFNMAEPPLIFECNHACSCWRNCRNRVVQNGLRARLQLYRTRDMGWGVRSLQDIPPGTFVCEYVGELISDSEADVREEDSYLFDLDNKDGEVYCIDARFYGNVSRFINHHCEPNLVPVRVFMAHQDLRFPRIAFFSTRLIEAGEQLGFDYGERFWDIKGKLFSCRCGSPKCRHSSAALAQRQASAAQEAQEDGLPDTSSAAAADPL

B1: UBXN1 (protein, UniProt Q04323 2-297, looked up)
UBX domain-containing protein …: AELTALESLIEMGFPRGRAEKALALTGNQGIEAAMDWLMEHEDDPDVDEPLETPLGHILGREPTSSEQGGLEGSGSAAGEGKPALSEEERQEQTKRMLELVAQKQREREEREEREALERERQRRRQGQELSAARQRLQEDEMRRAAEERRREKAEELAARQRVREKIERDKAERAKKYGGSVGSQPPPVAPEPGPVPSSPSQEPPTKREYDQCRIQVRLPDGTSLTQTFRAREQLAAVRLYVELHRGEELGGGQDPVQLLSGFPRRAFSEADMERPLQELGLVPSAVLIVAKKCPS
B2: SNRNP40 (protein, UniProt Q96DI7 1-357, looked up)
U5 small nuclear …: MIEQQKRKGPELPLVPVKRQRHELLLGAGSGPGAGQQQATPGALLQAGPPRCSSLQAPIMLLSGHEGEVYCCKFHPNGSTLASAGFDRLILLWNVYGDCDNYATLKGHSGAVMELHYNTDGSMLFSASTDKTVAVWDSETGERVKRLKGHTSFVNSCYPARRGPQLVCTGSDDGTVKLWDIRKKAAIQTFQNTYQVLAVTFNDTSDQIISGGIDNDIKVWDLRQNKLTYTMRGHADSVTGLSLSSEGSYLLSNAMDNTVRVWDVRPFAPKERCVKIFQGNVHNFEKNLLRCSWSPDGSKIAAGSADRFVYVWDTTSRRILYKLPGHAGSINEVAFHPDEPIIISASSDKRLYMGEIQ
B3: PPIL4 (protein, UniProt Q8WUA2 1-492, looked up)
Peptidyl-prolyl cis-trans …: MAVLLETTLGDVVIDLYTEERPRACLNFLKLCKIKYYNYCLIHNVQRDFIIQTGDPTGTGRGGESIFGQLYGDQASFFEAEKVPRIKHKKKGTVSMVNNGSDQHGSQFLITTGENLDYLDGVHTVFGEVTEGMDIIKKINETFVDKDFVPYQDIRINHTVILDDPFDDPPDLLIPDRSPEPTREQLDSGRIGADEEIDDFKGRSAEEVEEIKAEKEAKTQAILLEMVGDLPDADIKPPENVLFVCKLNPVTTDEDLEIIFSRFGPIRSCEVIRDWKTGESLCYAFIEFEKEEDCEKAFFKMDNVLIDDRRIHVDFSQSVAKVKWKGKGGKYTKSDFKEYEKEQDKPPNLVLKDKVKPKQDTKYDLILDEQAEDSKSSHSHTSKKHKKKTHHCSEEKEDEDYMPIKNTNQDIYREMGFGHYEEEESCWEKQKSEKRDRTQNRSRSRSRERDGHYSNSHKSKYQTDLYERERSKKRDRSRSPKKSKDKEKSKYR
B4: STRBP (protein, UniProt Q96SI9 1-672, looked up)
Spermatid perinuclear …: MRSIRSFANDDRHVMVKHSTIYPSPEELEAVQNMVSTVECALKHVSDWLDETNKGTKTEGETEVKKDEAGENYSKDQGGRTLCGVMRIGLVAKGLLIKDDMDLELVLMCKDKPTETLLNTVKDNLPIQIQKLTEEKYQVEQCVNEASIIIRNTKEPTLTLKVILTSPLIRDELEKKDGENVSMKDPPDLLDRQKCLNALASLRHAKWFQARANGLKSCVIVLRILRDLCNRVPTWAPLKGWPLELICEKSIGTCNRPLGAGEALRRVMECLASGILLPGGPGLHDPCERDPTDALSYMTIQQKEDITHSAQHALRLSAFGQIYKVLEMDPLPSSKPFQKYSWSVTDKEGAGSSALKRPFEDGLGDDKDPNKKMKRNLRKILDSKAIDLMNALMRLNQIRPGLQYKLLSQSGPVHAPVFTMSVDVDGTTYEASGPSKKTAKLHVAVKVLQAMGYPTGFDADIECMSSDEKSDNESKNETVSSNSSNNTGNSTTETSSTLEVRTQGPILTASGKNPVMELNEKRRGLKYELISETGGSHDKRFVMEVEVDGQKFRGAGPNKKVAKASAALAALEKLFSGPNAANNKKKKIIPQAKGVVNTAVSAAVQAVRGRGRGTLTRGAFVGATAAPGYIAPGYGTPYGYSTAAPAYGLPKRMVLLPVMKFPTYPVPHYSFF
B5: RAD21 (protein, UniProt O60216 1-631, looked up)
Double-strand-break repair …: MFYAHFVLSKRGPLAKIWLAAHWDKKLTKAHVFECNLESSVESIISPKVKMALRTSGHLLLGVVRIYHRKAKYLLADCNEAFIKIKMAFRPGVVDLPEENREAAYNAITLPEEFHDFDQPLPDLDDIDVAQQFSLNQSRVEEITMREEVGNISILQENDFGDFGMDDREIMREGSAFEDDDMLVSTTTSNLLLESEQSTSNLNEKINHLEYEDQYKDDNFGEGNDGGILDDKLISNNDGGIFDDPPALSEAGVMLPEQPAHDDMDEDDNVSMGGPDSPDSVDPVEPMPTMTDQTTLVPNEEEAFALEPIDITVKETKAKRKRKLIVDSVKELDSKTIRAQLSDYSDIVTTLDLAPPTKKLMMWKETGGVEKLFSLPAQPLWNNRLLKLFTRCLTPLVPEDLRKRRKGGEADNLDEFLKEFENPEVPREDQQQQHQQRDVIDEPIIEEPSRLQESVMEASRTNIDESAMPPPPPQGVKRKAGQIDPEPVMPPQQVEQMEIPPVELPPEEPPNICQLIPELELLPEKEKEKEKEKEDDEEEEDEDASGGDQDQEERRWNKRTQQMLHGLQRALAKTGAESISLLELCRNTNRKQAAAKFYSFLVLKKQQAIELTQEEPYSDIIATPGPRFHII

Assays:
3×MBT domain of L3MBTL1 = assay: Triple SILAC pull-down, 3xMBT/3xMBTD355N ratio (cytoplasmic, nuclear and chromatin fractions of 293T cells); type: binding, human; settings: for 3xMBT/D355N UNC Heavy: experiment with UNC0638 in heavy SILAC media; for 3xMBT/D355N UNC Light: experiment with UNC0638 in light SILAC media;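 as to all read-outs here: proteins quantified with MaxQuant, requiring at least two unique peptides and quantification in both label directions, normalized to the mean of proteins from a digested loading control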
G9a and GLP = molecular target: T1, G9a and GLP; assay: Triple SILAC pull-down after UNC0638 treatment of 293T cells, DMSO/UNC0638 ratio of protein captured by 3×MBT; type: cell-based; parameters: endogenous in cells; host or cells: HEK 293T; settings: for Relative to UNC0638 UNC Heavy: UNC0638 in heavy SILAC media; for Relative to UNC0638 UNC Light: UNC0638 in light SILAC media; for Relative to UNC0638 Average: average of UNC Light and UNC Heavy experiments;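 as to all read-outs here: mass spectrometry (Q-Exactive) SILAC quantitation, DMSO/UNC0638 ratio computed after subtracting 3×MBTD355N mutant pull-down background, only proteins with at least twofold 3×MBT over mutant signal considered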
[1] = SILAC ratio 3xMBT vs 3xMBTD355N pull-down, 293T cells, all values in log base 2
[2] = SILAC ratio DMSO relative to UNC0638, pull-down with 3xMBT, all values in log base 2
[3] = SILAC ratio, pull-down 3xMBT vs 3xMBTD355N
[4] = SILAC ratio DMSO/UNC0638 of protein pulled down with 3xMBT

| Molecule | 3xMBT/D355N UNC Heavy (3×MBT domain of L3MBTL1; [1]) [log base 2] | 3xMBT/D355N UNC Light (3×MBT domain of L3MBTL1; [1]) [log base 2] | Relative to UNC0638 UNC Heavy (G9a and GLP; [2]) [log base 2] | Relative to UNC0638 UNC Light (G9a and GLP; [2]) [log base 2] | Relative to UNC0638 Average (G9a and GLP; all values in log base 2) [log base 2] | 3xMBT/D355N UNC Heavy (3×MBT domain of L3MBTL1; [3]) [log base 2] | 3xMBT/D355N UNC Light (3×MBT domain of L3MBTL1; [3]) [log base 2] | Relative to UNC0638 UNC Heavy (G9a and GLP; [4]) [log base 2] | Relative to UNC0638 UNC Light (G9a and GLP; [4]) [log base 2] | Relative to UNC0638 Average (G9a and GLP) [log base 2] | Candidate G9a/GLP target (G9a and GLP; reduced association with 3xMBT after UNC0638 treatment) |
| --- | --- | --- | --- | --- | --- | --- | --- | --- | --- | --- | --- |
| B1 | 0.62 | 1.91 | 0.12 | 0.04 | 0.08 | – | – | – | – | – | – |
| B2 | 2.39 | 2.64 | 0.27 | −0.12 | 0.07 | – | – | – | – | – | – |
| B3 | – | – | – | – | – | 1.63 | 2.38 | 0.46 | 0.50 | 0.48 | ✓ |
| B4 | 2.70 | 3.07 | 0.21 | −0.06 | 0.07 | – | – | – | – | – | – |
| B5 | 2.15 | 1.49 | 0.07 | 0.08 | 0.07 | – | – | – | – | – | – |
